Target: T1, Choline kinase alpha, full-length (FL) wild type (human, UniProt P35790 1-457)
T1 construct: Choline kinase alpha, unspliced variant ChoKα1, 457 residues, human, UniProt P35790; full length, up to Val457; Cleaved ChoKα constructs were the probes of the pull-downs; also called ChoKα; ChoKα1; source: E. coli Rosetta (DE3)pLysS, purified (HisTrap Ni2+ column, S-200 gel filtration); not shown: His6, N-terminal, cleaved; SUMO, N-terminal, cleaved
Test: SPR; SH3 domains immobilised on one CM5 chip, ChoKα injected in triplicate, 0.1 to 30 µM, 2 min, PBS pH 7.5, 30 µL/min; steady-state KD from RUmax
Conditions: both partners purified

T1 sequence (P35790 whole entry, canonical isoform): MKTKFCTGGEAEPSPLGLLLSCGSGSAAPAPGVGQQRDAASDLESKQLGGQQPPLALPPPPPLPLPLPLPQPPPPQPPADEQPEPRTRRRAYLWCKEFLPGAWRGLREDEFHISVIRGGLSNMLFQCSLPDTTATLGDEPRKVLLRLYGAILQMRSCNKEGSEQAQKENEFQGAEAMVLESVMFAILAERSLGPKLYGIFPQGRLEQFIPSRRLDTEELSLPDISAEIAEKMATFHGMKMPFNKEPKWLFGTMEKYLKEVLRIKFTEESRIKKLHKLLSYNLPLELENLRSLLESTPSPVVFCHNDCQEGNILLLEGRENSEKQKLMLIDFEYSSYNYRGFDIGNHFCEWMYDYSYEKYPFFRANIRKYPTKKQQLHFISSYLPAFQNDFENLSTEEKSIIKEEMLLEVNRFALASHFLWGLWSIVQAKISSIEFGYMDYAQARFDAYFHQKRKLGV

- Kd: 25.9 µM
B1: Hck SH3 domain (domain or fragment)
chain: not shown
notes: Src-family kinase Hck, SH3 domain; source: recombinant, purified
